Each block holds one molecule with its values, some of them ahead of it.
Tests used:
[1] = biological target: CD20 on living lymphoma cells (Raji, Rael, Daudi) (UniProt P11836); assay: immunoreactive fraction, modified Lindmo method on lymphoma cells; 1 experiment
[2] = biological target: CD20 on living lymphoma cells (Raji, Rael, Daudi) (UniProt P11836); assay: ^125I-labeled antibody on Raji cells, one-step curve fit of specific binding against time and concentration
[3] = biological target: CD20 on living lymphoma cells (Raji, Rael, Daudi) (UniProt P11836); assay: ^125I-labeled antibody on Rael cells, one-step curve fit of specific binding against time and concentration
[4] = biological target: CD20 on living lymphoma cells (Raji, Rael, Daudi) (UniProt P11836); assay: immunoreactive fraction, modified Lindmo method on lymphoma cells; mean ± SD of 6 experiments
[5] = biological target: T1, human CD37 on living lymphoma cells (Raji, Rael, Daudi) (human, UniProt P11049 1-281); assay: ^125I-labeled antibody on Raji cells, one-step curve fit of specific binding against time and concentration
T1 construct: whole, on cells; Target of HH1 and of the three bought anti-CD37 antibodies on cell lines; also called CD37 antigen
T1 sequence (looked up): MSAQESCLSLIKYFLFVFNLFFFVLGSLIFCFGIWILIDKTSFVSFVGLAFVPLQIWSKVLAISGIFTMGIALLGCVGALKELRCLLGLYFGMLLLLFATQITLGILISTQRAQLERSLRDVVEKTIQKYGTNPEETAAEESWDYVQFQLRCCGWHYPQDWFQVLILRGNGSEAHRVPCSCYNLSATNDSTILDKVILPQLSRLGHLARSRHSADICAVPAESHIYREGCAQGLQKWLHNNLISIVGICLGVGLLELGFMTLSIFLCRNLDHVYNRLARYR
Experimental: (§1) The association rate constant, kₐ, the equilibrium dissociation constant, Kd, and the mean number of binding sites, Bₘₐₓ, was determined by a one-step curve fitting method (Dahle et al. 2007). The binding parameters were measured for HH1 and rituximab and for three different lymphoma cell lines; Raji, Rael and Daudi cells (Table 2). Specific binding was measured as a function of time and antibody concentration, and the solution of the differential equation describing the net rate of formation of the antigen-antibody complex was fitted to the experimental data points using the association rate constant, kₐ, the equilibrium dissociation constant, Kd, and the mean number of binding sites, Bₘₐₓ, as parameters. Five million cells pr ml were used, four concentrations of ¹²⁵I-labeled antibody (100 ng/ml, 1000 ng/ml, 5000 ng/ml and 10000 ng/ml) and 7 incubation time points (5 min, 10 min, 20 min, 30 min, 1 h, 1.5 h and 2 h). After incubation, cells were washed twice with PBS, and then counted in a gamma counter.

[6] = biological target: T1, human CD37 on living lymphoma cells …; assay: ^125I-labeled antibody on Rael cells, one-step curve fit of specific binding against time and concentration
Experimental: as §1

[7] = biological target: T1, human CD37 on living lymphoma cells …; assay: ^125I-labeled antibody on Daudi cells, one-step curve fit of specific binding against time and concentration
Experimental: as §1

CD20 on living lymphoma cells (Raji, Rael, Daudi), sequence (P11836 whole entry): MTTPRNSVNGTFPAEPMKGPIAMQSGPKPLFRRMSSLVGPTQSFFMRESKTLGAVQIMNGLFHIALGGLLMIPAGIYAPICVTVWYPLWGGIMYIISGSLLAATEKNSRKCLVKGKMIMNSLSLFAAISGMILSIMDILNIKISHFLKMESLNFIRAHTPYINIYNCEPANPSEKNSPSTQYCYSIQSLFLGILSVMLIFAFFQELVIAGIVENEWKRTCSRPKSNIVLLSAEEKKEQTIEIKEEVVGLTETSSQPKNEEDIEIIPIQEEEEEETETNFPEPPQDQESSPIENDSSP

IRF (%) [1]: 45%
Molecule: ^111In-rituximab (antibody)

IRF (%) [1]: 60%
Molecule: ^177Lu-rituximab (antibody)

Bmax(Ag/cell) [2]: 272000 Ag/cell | Kd [2]: 4.8 nM | Bmax(Ag/cell) [3]: 626000 Ag/cell | Kd [3]: 12 nM | IRF (%), mean [4]: 62%
Molecule: ^125I-rituximab (antibody)

Kd [5]: 6.3 nM | Kd [6]: 12.7 nM | Kd [7]: 2.7 nM
B1: ^125I-labeled HH1 (antibody, V domains shown)
VH: EIQLQQSGPELVKPGASVKVSCKASGYSFTDYNMYWVKQSHGKSLEWIGYIDPYNGDTTYNQKFKGKATLTVDKSSSTAFIHLNSLTSEDSAVYYCARSPYGHYAMDYWGQGTSVTVSS
VL: DIVMTQSHKLLSTSVGDRVSITCKASQDVSTAVDWYQQKPGQSPKLLINWASTRHTGVPDRFTGSGSGTDYTLTISSMQAEDLALYYCRQHYSTPFTFGSGTKLEIK
modifications: ^125I by indirect iodination with IODOGEN tubes; chain and residues not stated

— US20140147384A1 (NORDIC NANOVECTOR, published 2014)
